Experimental data: the supplement of paper PMC9170038

Test system: MS2 coat protein
Test: apparent KD of MS2 coat protein; designed switch direction (-1 OFF switch, 1 ON switch): 1; higher = weaker reporter binding
Outline: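 Three titration conditions were used: no input, 200 uM small-molecule ligand, and an oligonucleotide input. In each, SNAP-549-labelled MS2 coat protein was raised from 0.7 or 1.5 nM, doubling, to 3 µM over designed RNA switches transcribed on Illumina chips by stalled E. coli RNA polymerase. Curve fits of normalised cluster fluorescence gave values whose per-design median over clusters is the apparent KD.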

[1] = input ligand: microRNA oligo, concentration not stated
[2] = Eterna round: R95, input ligand: FMN 200 uM
[3] = Eterna round: R95, input ligand: microRNA oligo, concentration not stated
[4] = Eterna round: R95, input ligand: none

Sequence | apparent KD of MS2 coat protein (input ligand: FMN 200 uM) [nM] | apparent KD of MS2 coat protein [1] [nM] | apparent KD of MS2 coat protein (input ligand: none) [nM] | apparent KD of MS2 coat protein [2] [nM] | apparent KD of MS2 coat protein [3] [nM] | apparent KD of MS2 coat protein [4] [nM]
AACAUGAGGAUCACCCAUGUCAGGCCGCCGGCCUACAUGAGGAAGGAUAUAGCCUCGAAAAUUGGCUAGAAGGUCCUCAUGAAU [Letemaar] (Eterna round: R96, puzzle: Same State NG 3) | 115 | 4.24 | 26.1 |  |  | 
GAGUGGUAAAGAGGAUAUGCAUUGUUAUUCACUGUAGAAGGUUUUAACAUGAGGAUCACCCAUGUAGGACUAUUCCUGUGUUUU [Parity 61 - Jieux - Same State NG 1] (Eterna round: R96, puzzle: Same State NG 1) | 12.4 | 12.4 | 18.8 |  |  | 
AUUCGUUUGAUAGGAUAUCACUUUACAUGAGGAUCACCCAUGUUCACCACGCUGGUUUCUUAUACUGAGAAGGAUCUUGAUGAC [JR_SSNG2_Sub010] (Eterna round: R96, puzzle: Same State NG 2) | 19.5 | 17.1 | 31.3 |  |  | 
AUGGUGCAGGUACAGGAUAUGUUGCUCGUAACAUGAGGAUCACCCAUGUACCUAUGAGAAUAAAUGCAGAAGGGUGCACACCACG [Mat - Same State 2 - Mod of UCT - D92] (puzzle: Same State 2) |  |  |  | 57 | 3220 | 156
GCCAACGCAUGAGGAUAUGGCACCUUAUUGGUGCCAGAAGGCGUGUGUAUUCACAUGAGGAUCACCCAUGUAUUAUAGUUGGCA [Fiskers NG1ss - 16] (Eterna round: R96, puzzle: Same State NG 1) | 24.1 | 169 | 189 |  |  | 
AUAAAACAUGAGGAUCACCCAUGUCAACAAAGUCGAGGAUAUGGGCAAAUAAAAUAAGAAUCAGAAGGCGAAUAAU [salish99_ss1_r3_030] (puzzle: Same State 1) |  |  |  | 265 | 330 | 404
AUAAUACAUGAGGAUCACCCAUGUAAUUUAACUUGUAAGAUCAAGGAUAUCAGCUCGAUUAGAGCUGAGAAGGUGAUCACAUGU [SSNG3/20-A2] (Eterna round: R96, puzzle: Same State NG 3) |  | 69.1 |  |  |  | 
GCUGGAAACCACAUGAGGAUCACCCAUGUUCCGGAAACGGCACAGGAUAUCUGUCCGAAAAGGUCAGAGAAGGGUGAAACCAGC [Fiskers NG3ss - 83] (Eterna round: R96, puzzle: Same State NG 3) | 263 | 114 | 188 |  |  | 
AGUCCAGCCUGAGCUGGACAAAAGCAUGUACAUGAGGAUCACCCAUGUCAUGUACAAGCUUUUUGCUCAAAAUAAUA [Mat - hsa-mir-208a - Mod of JL - D33] (puzzle: Sensor for hsa-mir-208a) |  |  |  | 957 | 14.8 | 607
ACAAGCUUUUUAGGAAGAGAAGAAAGGGAACAUGAGGAUCACCCAUGUAAGUGGAAUGAAGAAGGAGCACGUCUUAU [JR_SHM208A_Sub096] (puzzle: Sensor for hsa-mir-208a) |  |  |  | 54.2 | 17.5 | 61
UGUUGUAUUACAGGAUAUCUAUGAUUUUUACUUAGAGAAGGGUAUUCACAUGAGGAUCACCCAUGUAUAUACGAGGAAGUUGUG [JMF's solution 67] (Eterna round: R96, puzzle: Same State NG 1) | 47.2 | 35.1 | 44.2 |  |  | 
GGUAAGAAUUAAGGAUAUUGAAUACAUAUGUUUAACAUGAGGAUCACCCAUGUGGGUUGCGGUGUCGAGAAGGUAAAAUAAUAG [Mat - same State NG 2 - JL mod - D101] (Eterna round: R96, puzzle: Same State NG 2) | 269 | 166 | 311 |  |  | 
AACAAAUACACAGGAUAUACAGUGGCAACCACUGUAGAAGGGUGGGCGGGUUCCAACAUGAGGAUCACCCAUGUACCCAAUAAC [Atbiladi] (Eterna round: R96, puzzle: Same State NG 1) | 521 | 535 | 882 |  |  | 
UGAGCCGGCACUGAGGAUAUUCAUAUUAAAACAUGAGGAUCACCCAUGUAGGCCAGAAGGCCUUGGGAGAAGGCAGGUCGGCUCA [Mat - Same State 2 - Mod of UCT - D62] (puzzle: Same State 2) |  |  |  |  | 200 | 
UGUUGUAUUACAGGAUAUCUAGUAUUUUUAUUCAGAGAAGGGUAUUCACAUGAGGAUCACCCAUGUAUAUACGAGGAAGUUGUG [JMF's solution 56] (Eterna round: R96, puzzle: Same State NG 1) |  | 34.1 |  |  |  | 
AUUGCUUACGCAGGAUAUGAUGCGAAAAUUGCGUCAGAAGGGUGAAGUAUCUCAUUGCAACAGGACAUGAGGAUCACCCAUGUC [SameState NG1 #99] (Eterna round: R96, puzzle: Same State NG 1) | 150 | 303 | 455 |  |  | 
